Reference: patent US20240102068A1, “C-GLYCOSYLTRANSFERASE VARIANTS AND USE THEREOF” (KOREA ADVANCED INSTITUTE OF SCIENCE AND TECHNOLOGY, priority 2021, published 2024)
Entries after “also recorded” stand apart in the source; their conditions may differ.

Test system: FK
Test: dcII production from FK by C-glycosyltransferase candidates and GtCGT mutants in FK-producing E. coli, flask culture
Type: cell-based
Details: for dcII production: FK-producing E. coli strain; for KA production compared with wild-type GtCGT: mutants transformed into FK strains
Protocol: Flask culture was carried out under the following conditions. Colonies were seeded into 10 mL of LB medium supplemented with appropriate concentrations of antibiotics, followed by culture overnight at 37° C. The culture fluid thus prepared was passaged into a 250 mL baffled flask containing 50 mL of R/2 medium supplemented with 3 g/L yeast extract and 20 g/L glucose (with 0.45 g/L ascorbic acid if necessary), followed by culture at 30° C. and 200 rpm. The composition of R/2 medium (pH 6.8) was as follows (per liter): 2 g of (NH4)2HPO4, 6.75 g of KH2PO4, 0.85 g of citric acid, 0.7 g of MgSO4·7H2O, and 5 ml of trace metal solution (TMS) [10 g of FeSO4·7H2O, 2.25 g of ZnSO4·7H2O, 1 g of CuSO4·5H2O, 0.5 g of MnSO4·5H2O, 0.23 g of Na2B4O7·10H2O, 2 g of CaCl2·2H2O, and 0.1 g of (NH4)6Mo7O24 per liter of 5 M HCl]. When OD600 of the culture fluid reached 0.6-0.8, 1 mM isopropyl β-D-1-thiogalactopyranoside (IPTG) was added to induce exogenous gene expression, followed by culture for 48 hours.
After culture, production analysis was performed under the following conditions. After flask culture, 50 mL of the culture fluid was centrifuged at 4,000 g for 30 minutes, and then the supernatant was desalted and concentrated. Here, Oasis HLB cartridges (Water) were used. The supernatant was concentrated 1-fold for FK, 30-fold for KA, 45-fold for dell, and 200-fold for carminic acid. The concentrated sample was re-dissolved in an appropriate volume of DMSO and impurities were then removed therefrom using a 0.22 μm PTFE filter. The prepared sample was analyzed by MS (LC/MSD VL; Agilent) coupled with HPLC (1100 series; Agilent). An Eclipse XDB-C18 column was used, 0.1% formic acid was used as buffer A, and methanol was used as buffer B. Analysis was performed in an ESI negative mode. For more accurate analysis of carminic acid, LC-MS/MS was performed using an HPLC Triple Quadrupole Mass Spectrometer (LCMS-8050, Shimadzu) (MRM mode).
Flask culture started by seeding colonies from LB agar plates into test tubes containing 10 mL of LB. As such, an appropriate concentration of antibiotics was added, followed by culture overnight at 37° C. at 220 rpm. 1 mL of the seed culture thus prepared was inoculated into a 250 mL baffled flask containing 50 mL of R/2 medium (supplemented with 3 g/L yeast extract and 20 g/L glucose), followed by culture at 30° C. and 200 rpm. The composition of R/2 medium was as follows (pH 6.8, per 1 L): 2 g of (NH4)2HPO4, 6.75 g of KH2PO4, 0.85 g of citric acid, 0.8 g of MgSO4·7H2O, and 5 ml of trace metal solution (TMS). The composition of TMS was as follows (based on 0.1 M HCl, per 1 L): 10 g of FeSO4·7H2O, 2.25 g of ZnSO4·7H2O, 1 g of CuSO4·5H2O, 0.58 g of MnSO4·5H2O, 0.02 g of Na2B4O7·10H2O, 2 g of CaCl2·2H2O, and 0.1 g of (NH4)6Mo7O24·4H2O. When OD600 of the culture fluid reached 0.6-0.8, 0.5 mM IPTG was added to induce exogenous enzyme expression, followed by culture for 48 hours. In all experiments for producing flavokermesic acid, kermesic acid, dcII, and carminic acid, 0.45 g/L of ascorbic acid was further added.
The production of carminic acid (CA) from FK was performed by two biosynthesis pathways, both of which require monooxygenase and C-glycosyltransferase. FK may be oxidized into KA or may be C-glycosylated into dcII. […] In order for the enzyme to have activity, however, it must be glycosylated, and since it also has a transmembrane helix and a signal peptide, successful expression in cells such as E. coli is considered difficult.
For the enzymes selected above, pCDF-DcCGT, pCDF-MiCGT, pCDF-SfCGT, pCDF-EnCGT, pCDF-OsCGT, pCDF-FeCGT, pCDF-GmCGT, pCDF-AvCGT, pCDF-AvCGT, pCDF-ZmCGT, and pCDF-GtCGT were constructed, and all genes except for the iroB gene amplified from genomic DNA of E. coli Nissle using the iroB_gib_F primer and the iroB_gib_R primer were artificially synthesized and inserted into the NdeI site of the pCDFDuet-1 plasmid using Gibson assembly. […]

Molecule | dcII production from FK (in words) (FK-producing E. coli) | KA production compared with wild-type GtCGT (flask culture) | further results
GtCGT: wild-type C-glycosyltransferase GtUF6CGT1 from Gentiana triflora (SEQ ID NO: 1) (protein, listed as Gentiana triflora) MGSLTNNDNLHIFLVCFIGQGVVNPMLRLGKAFASKGLLVTLSAPEIVGTEIRKANNLNDDQPIKVGSGMIRFEFFDDGWESVNGSKPFDVWVYINHLDQTGRQKLPIMLKKHEETGTPVSCLILNPLVPWVADVADSLQIPCATLWVQSCASFSAYYHYHHGLVPFPTESEPEIDVQLPGMPLLKYDEVPDYLHPRTPYPFFGTNILGQFKNLSKNFCILMDTFYELEHEIIDNMCKLCPIKPIGPLFKIPKDPSSNGITGNFMKVDDCKEWLDSRPTSTVVYVSVGSVVYLKQEQVTEMAYGILNSEVSFLWVLRPPSKRIGTEPHVLPEEFWEKAGDRGKVVQWSPQEQVLAHPATVGFLTHCGWNSTQEAISSGVPVITFPQFGDQVTNAKFLVEEFKVGVRLGRGELENRIITRDEVERALREITSGPKAEEVKENALKWKKKAEETVAKGGYSERNLVGFIEEVARKTGTK | able to successfully convert FK into dell |  | dcII production (flask culture): 0.13 mg CA eq/L; dcII production (galU, pgm and ndk overexpressed): 0.30 mg CA eq/L
Y193F (protein, listed as Gentiana triflora) MGSLTNNDNLHIFLVCFIGQGVVNPMLRLGKAFASKGLLVTLSAPEIVGTEIRKANNLNDDQPIKVGSGMIRFEFFDDGWESVNGSKPFDVWVYINHLDQTGRQKLPIMLKKHEETGTPVSCLILNPLVPWVADVADSLQIPCATLWVQSCASFSAYYHYHHGLVPFPTESEPEIDVQLPGMPLLKYDEVPDFLHPRTPYPFFGTNILGQFKNLSKNFCILMDTFYELEHEIIDNMCKLCPIKPIGPLFKIPKDPSSNGITGNFMKVDDCKEWLDSRPTSTVVYVSVGSVVYLKQEQVTEMAYGILNSEVSFLWVLRPPSKRIGTEPHVLPEEFWEKAGDRGKVVQWSPQEQVLAHPATVGFLTHCGWNSTQEAISSGVPVITFPQFGDQVTNAKFLVEEFKVGVRLGRGELENRIITRDEVERALREITSGPKAEEVKENALKWKKKAEETVAKGGYSERNLVGFIEEVARKTGTK | second highest concentration of dell | higher KA production than wild-type GtCGT | 
GtCGT^V93Q (protein) MGSLTNNDNLHIFLVCFIGQGVVNPMLRLGKAFASKGLLVTLSAPEIVGTEIRKANNLNDDQPIKVGSGMIRFEFFDDGWESVNGSKPFDVWQYINHLDQTGRQKLPIMLKKHEETGTPVSCLILNPLVPWVADVADSLQIPCATLWVQSCASFSAYYHYHHGLVPFPTESEPEIDVQLPGMPLLKYDEVPDYLHPRTPYPFFGTNILGQFKNLSKNFCILMDTFYELEHEIIDNMCKLCPIKPIGPLFKIPKDPSSNGITGNFMKVDDCKEWLDSRPTSTVVYVSVGSVVYLKQEQVTEMAYGILNSEVSFLWVLRPPSKRIGTEPHVLPEEFWEKAGDRGKVVQWSPQEQVLAHPATVGFLTHCGWNSTQEAISSGVPVITFPQFGDQVTNAKFLVEEFKVGVRLGRGELENRIITRDEVERALREITSGPKAEEVKENALKWKKKAEETVAKGGYSERNLVGFIEEVARKTGTK | highest dcII production | higher KA production than wild-type GtCGT | dcII production increase compared to wild-type GtCGT (FK strain, flask culture): about 2.9 fold
L164G: GtCGT single mutant L164G (protein, listed as Gentiana triflora) MGSLTNNDNLHIFLVCFIGQGVVNPMLRLGKAFASKGLLVTLSAPEIVGTEIRKANNLNDDQPIKVGSGMIRFEFFDDGWESVNGSKPFDVWVYINHLDQTGRQKLPIMLKKHEETGTPVSCLILNPLVPWVADVADSLQIPCATLWVQSCASFSAYYHYHHGGVPFPTESEPEIDVQLPGMPLLKYDEVPDYLHPRTPYPFFGTNILGQFKNLSKNFCILMDTFYELEHEIIDNMCKLCPIKPIGPLFKIPKDPSSNGITGNFMKVDDCKEWLDSRPTSTVVYVSVGSVVYLKQEQVTEMAYGILNSEVSFLWVLRPPSKRIGTEPHVLPEEFWEKAGDRGKVVQWSPQEQVLAHPATVGFLTHCGWNSTQEAISSGVPVITFPQFGDQVTNAKFLVEEFKVGVRLGRGELENRIITRDEVERALREITSGPKAEEVKENALKWKKKAEETVAKGGYSERNLVGFIEEVARKTGTK |  | higher KA production than wild-type GtCGT | 
F17G (protein, listed as Gentiana triflora) MGSLTNNDNLHIFLVCGIGQGVVNPMLRLGKAFASKGLLVTLSAPEIVGTEIRKANNLNDDQPIKVGSGMIRFEFFDDGWESVNGSKPFDVWVYINHLDQTGRQKLPIMLKKHEETGTPVSCLILNPLVPWVADVADSLQIPCATLWVQSCASFSAYYHYHHGLVPFPTESEPEIDVQLPGMPLLKYDEVPDYLHPRTPYPFFGTNILGQFKNLSKNFCILMDTFYELEHEIIDNMCKLCPIKPIGPLFKIPKDPSSNGITGNFMKVDDCKEWLDSRPTSTVVYVSVGSVVYLKQEQVTEMAYGILNSEVSFLWVLRPPSKRIGTEPHVLPEEFWEKAGDRGKVVQWSPQEQVLAHPATVGFLTHCGWNSTQEAISSGVPVITFPQFGDQVTNAKFLVEEFKVGVRLGRGELENRIITRDEVERALREITSGPKAEEVKENALKWKKKAEETVAKGGYSERNLVGFIEEVARKTGTK |  | higher KA production than wild-type GtCGT | 
R322D (protein, listed as Gentiana triflora) MGSLTNNDNLHIFLVCFIGQGVVNPMLRLGKAFASKGLLVTLSAPEIVGTEIRKANNLNDDQPIKVGSGMIRFEFFDDGWESVNGSKPFDVWVYINHLDQTGRQKLPIMLKKHEETGTPVSCLILNPLVPWVADVADSLQIPCATLWVQSCASFSAYYHYHHGLVPFPTESEPEIDVQLPGMPLLKYDEVPDYLHPRTPYPFFGTNILGQFKNLSKNFCILMDTFYELEHEIIDNMCKLCPIKPIGPLFKIPKDPSSNGITGNFMKVDDCKEWLDSRPTSTVVYVSVGSVVYLKQEQVTEMAYGILNSEVSFLWVLRPPSKDIGTEPHVLPEEFWEKAGDRGKVVQWSPQEQVLAHPATVGFLTHCGWNSTQEAISSGVPVITFPQFGDQVTNAKFLVEEFKVGVRLGRGELENRIITRDEVERALREITSGPKAEEVKENALKWKKKAEETVAKGGYSERNLVGFIEEVARKTGTK |  | higher KA production than wild-type GtCGT | 
ZmCGT: UGT708A6 from Zea mays which acts as a dual C/O-glycosyltransferase (protein, UniProt A0A096SRM5 1-475, looked up) UDP-glycosyltransferase 708A6: MAANGGDHTSARPHVVLLPSAGMGHLVPFARLAVALSEGHGCNVSVAAVQPTVSSAESRLLDALFVAAAPAVRRLDFRLAPFDESEFPGADPFFLRFEATRRSAPLLGPLLDAAEASALVTDIVLASVALPVARERGVPCYVLFTSSAAMLSLCAYFPAYLDAHAAAGSVGVGVGNVDIPGVFRIPKSSVPQALHDPDHLFTQQFVANGRCLVACDGILVNTFDAFEPDAVTALRQGSITVSGGFPPVFTVGPMLPVRFQAEETADYMRWLSAQPPRSVVYVSFGSRKAIPRDQLRELAAGLEASGKRFLWVVKSTIVDRDDTADLGGLLGDGFLERVQGRAFVTMGWVEQEEILQHGSVGLFISHCGWNSLTEAAAFGVPVLAWPRFGDQRVNAALVARSGLGAWEEGWTWDGEEGLTTRKEVAKKIKGMMGYDAVAEKAAKVGDAAAAAIAKCGTSYQSLEEFVQRCRDAERK | able to successfully convert FK into dell; also recorded: very small amount |  | main product from FK (FK-producing E. coli): O-glycosylated FK
